According to publication PMC12691639:

Target: K62-HA (K62 killer toxin with a C-terminal hemagglutinin tag), expressed by S. cerevisiae (Saccharomyces paradoxus)

K62-HA (K62 killer toxin with a C-terminal hemagglutinin tag), expressed by S. cerevisiae (natural protein)
stoichiometry N: 2
